The source of these data is the supplement of paper PMC11316812.

± gives the standard deviation of the averaged measurements.

For one data set, the system named is hTERT-HMEC. The experiment in a line: percentage of EdU-negative (G0-arrested) nuclei per well, 72 h; higher = more G0 arrest. As to conditions: reference: sequence is the full UniProt precursor, the tested protein was the secreted form or ectodomain.
In another data set the test system is MCF7. The data set is described as above. As to conditions: reference: sequence is the full UniProt precursor, the tested protein was the secreted form or ectodomain.
Where [1] appears, read: protein concentration 0.02175 µM.
Setting [2] is: protein concentration 0.2175 µM.
The mark [3] stands for this setting: protein concentration 0.00875 µM.
Setting [4] is: protein concentration 0.0875 µM.
[5] abbreviates: protein concentration 0.01925 µM.
The mark [6] stands for this setting: protein concentration 0.1925 µM.
Where [7] appears, read: protein concentration 0.0225 µM.
The mark [8] stands for this setting: protein concentration 0.03125 µM.
[9] abbreviates: protein concentration 0.3125 µM.
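Note: secreted proteins added to cultured cells, EdU pulse at the end, nuclei found by Hoechst imaging, EdU status from nuclear versus surrounding ring intensity ratio, PBS as neutral control.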

For “MALTGYSWLLLSATFLNVGAEISITLEPAQPSEGDNVTLVVHGLSGELLAYSWYAGPTLSVSYLVASYIVSTGDETPGPAHTGREAVRPDGSLDIQGILPRHSGTYILQTFNRQLQTEVGYGHVQVHEILAQPTVLANSTALVERRDTLRLMCSSPSPTAEVRWFFNGGALPVALRLGLSPDGRVLARHGIRREEAGAYQCEVWNPVSVSRSEPINLTVYFGPERVAILQDSTTRTGCTIKVDFNTSLTLWCVSRSCPEPEYVWTFNGQALKNGQDHLNISSMTAAQEGTYTCIAKNTKTLLSGSASVVVKLSAAAVATMIVPVPTKPTEGQDVTLTVQGYPKDLLVYAWYRGPASEPNRLLSQLPSGTWIAGPAHTGREVGFPNCSLLVQKLNLTDTGRYTLKTVTVQGKTETLEVELQVAPLG [Q2WEN9]”, the “percentage of EdU-negative” value in the data set with hTERT-HMEC (setting [1]) worked out at 5.23 ± 0.14%; in the data set with hTERT-HMEC (setting [2]) it was 7.63 ± 2.6%; with MCF7 (setting [1]), 26.4 ± 2%; in the data set on MCF7 (setting [2]), 27.5 ± 2.3%.

Take “MALTLFDTDEYRPPVWKSYLYQLQQEAPHPRRITCTCEVENRPKYYGREFHGMISREAADQLLIVAEGSYLIRESQRQPGTYTLALRFGSQTRNFRLYYDGKHFVGEKRFESIHDLVTDGLITLYIETKAAEYIAKMTINPIYEHVGYTTLNREPAYKKHMPVLKETHDERDSTGQDGVSEKRLTSLVRRATLKENEQIPKYEKIHNFKVHTFRGPHWCEYCANFMWGLIAQGVKCADCGLNVHKQCSKMVPNDCKPDLKHVKKVYSCDLTTLVKAHTTKRPMVVDMCIREIESRGLNSEGLYRVSGFSDLIEDVKMAFDRDGEKADISVNMYEDINIITGALKLYFRDLPIPLITYDAYPKFIESAKIMDPDEQLETLHEALKLLPPAHCETLRYLMAHLKRVTLHEKENLMNAENLGIVFGPTLMRSPELDAMAALNDIRYQRLVVELLIKNEDILF [B8ZZ96]”: the “percentage of EdU-negative” value is 4.91 ± 0.4% with hTERT-HMEC (setting [3]), 6.84 ± 1.4% with hTERT-HMEC (setting [4]), 25.94 ± 0.25% in the data set on MCF7 (setting [3]) and 26.7 ± 0.53% in the data set on MCF7 (setting [4]).

Consider “MALVRALVCCLLTAWHCRSGLGLPVAPAGGRNPPPAIGQFWHVTDLHLDPTYHITDDHTKVCASSKGANASNPGPFGDVLCDSPYQLILSAFDFIKNSGQEASFMIWTGDSPPHVPVPELSTDTVINVITNMTTTIQSLFPNLQVFPALGNHDYWPQDQLPVVTSKVYNAVANLWKPWLDEEAISTLRKGGFYSQKVTTNPNLRIISLNTNLYYGPNIMTLNKTDPANQFEWLESTLNNSQQNKEKVYIIAHVPVGYLPSSQNITAMREYYNEKLIDIFQKYSDVIAGQFYGHTHRDSIMVLSDKKGSPVNSLFVAPAVTPVKSVLEKQTNNPGIRLFQYDPRDYKLLDMLQYYLNLTEANLKGESIWKLEYILTQTYDIEDLQPESLYGLAKQFTILDSKQFIKYYNYFFVSYDSSVTCDKTCKAFQICAIMNLDNISYADCLKQLYIKHNY”, for which the “percentage of EdU-negative” value in the data set with hTERT-HMEC (setting [5]) worked out at 4.69 ± 0.32%; in the data set with hTERT-HMEC (setting [6]), 15.5 ± 1.9%; in the data set on MCF7 (setting [5]), 26.4 ± 2.1%; in the data set on MCF7 (setting [6]), 28.3 ± 3.7%.

Turning to “MALWRGSAYAGFLALAVGCVFLLEPELPGSALRSLWSSLCLGPAPAPPGPVSPEGRLAAAWDALIVRPVRRWRRVAVGVNACVDVVLSGVKLLQALGLSPGNGKDHSILHSRNDLEEAFIHFMGKGAAAERFFSDKETFHDIAQVASEFPGAQHYVGGNAALIGQKFAANSDLKVLLCGPVGPKLHELLDDNVFVPPESLQEVDEFHLILEYQAGEEWGQLKAPHANRFIFSHDLSNGAMNMLEVFVSSLEEFQPDLVVLSGLHMMEGQSKELQRKRLLEVVTSISDIPTGIPVHLELASMTNRELMSSIVHQQVFPAVTSLGLNEQELLFLTQSASGPHSSLSSWNGVPDVGMVSDILFWILKEHGRSKSRASDLTRIHFHTLVYHILATVDGHWANQLAAVAAGARVAGTQACATETIDTSRVSLRAPQEFMTSHSEAGSRIVLNPNKPVVEWHREGISFHFTPVLVCKDPIRTVGLGDAISAEGLFYSEVHPHY [Q9BRR6]”, the “percentage of EdU-negative” value with hTERT-HMEC (setting [7]) was determined as 4.76 ± 0.58%; with hTERT-HMEC (protein concentration 0.225 µM) it was 5.82 ± 0.78%; in the data set on MCF7 (setting [7]), 24.8 ± 1%; with MCF7 (protein concentration 0.225 µM), 24 ± 2.1%.

With “MAMRLILFFGALFGHIYCLETFVGDQVLEIVPSNEEQIKNLLQLEAQEHLQLDFWKSPTTPGETAHVRVPFVNVQAVKVFLESQGIAYSIMIEDVQVLLDKENEEMLFNRRRERSGNFNFGAYHTLEEISQEMDNLVAEHPGLVSKVNIGSSFENRPMNVLKFSTGGDKPAIWLDAGIHAREWVTQATALWTANKIVSDYGKDPSITSILDALDIFLLPVTNPDGYVFSQTKNRMWRKTRSKVSGSLCVGVDPNRNWDAGFGGPGASSNPCSDSYHGPSANSEVEVKSIVDFIKSHGKVKAFITLHSYSQLLMFPYGYKCTKLDDFDELSEVAQKAAQSLRSLHGTKYKVGPICSVIYQASGGSIDWSYDYGIKYSFAFELRDTGRYGFLLPARQILPTAEETWLGLKAIMEHVRDHPY”, the “percentage of EdU-negative” value with hTERT-HMEC (setting [7]) came out at 6 ± 1%; in the data set on hTERT-HMEC (protein concentration 0.225 µM), 5.16 ± 0.28%; in the data set with MCF7 (setting [7]), 25.6 ± 2.3%; in the data set with MCF7 (protein concentration 0.225 µM) it was 24.9 ± 0.71%.

“MANRGPAYGLSREVQQKIEKQYDADLEQILIQWITTQCRKDVGRPQPGRENFQNWLKDGTVLCELINALYPEGQAPVKKIQASTMAFKQMEQISQFLQAAERYGINTTDIFQTVDLWEGKNMACVQRTLMNLGGLAVARDDGLFSGDPNWFPKKSKENPRNFSDNQLQEGKNVIGLQMGTNRGASQAGMTGYGMPRQIL”: the “percentage of EdU-negative” value was 6.1 ± 1.2% with hTERT-HMEC (setting [8]), 5.189 ± 0.039% in the data set on hTERT-HMEC (setting [9]), 25.9 ± 1.3% in the data set with MCF7 (setting [8]) and 25.2 ± 2.8% in the data set with MCF7 (setting [9]).

Consider “MAPAGCCCCCCFWGGAVAAAGAARRVLLLLLLGVLSAGLRPGALATEHYSPLSLLKQELQHRQQQEAPAGGGGCSPQSGDWGDQYSAECGESSFLNFHDSDCEPKGSSPCDSLLSLNTEKILSQAKSIAEQKRFPFATDNDSTNEELAIAYVLIGSGLYDEAIRHFSTMLQEEPDLVSAIYGRGIAYGKKGLHDIKNAELALFELSRVITLEPDRPEVFEQRAEILSPLGRINEAVNDLTKAIQLQPSARLYRHRGTLYFISEDYATAHEDFQQSLELNKNQPIAMLYKGLTFFHRGLLKEAIESFKEALKQKVDFIDAYKSLGQAYRELGNFEAATESFQKALLLNQNHVQTLQLRGMMLYHHGSLQEALKNFKRCLQLEPYNEVCQYMKGLSHVAMGQFYEGIKAQTKVMLNDPLPGQKASPEYLKVKYLREYSRYLHAHLDTPLTEYNIDVDLPGSFKDHWAKNLPFLIEDYEEQPGLQPHIKDVLHQNFESYKPEVQELICVADRLGSLMQYETPGFLPNKRIHRAMGLAALEVMQAVQRTWTNSKVRMNGKTRLMQWRDMFDIAVKWRRIADPDQPVLWLDQMPARSLSRGFNNHINLIRGQVINMRYLEYFEKILHFIKDRILVYHGANNPKGLLEVREALEKVHKVEDLLPIMKQFNTKTKDGFTVNTKVPSLKDQGKEYDGFTITITGDKVGNILFSVETQTTEERTQLYHAEIDALYKDLTAKGKVLILSSEFGEADAVCNLILSLVYYFYNLMPLSRGSSVIAYSVIVGALMASGKEVAGKIPKGKLVDFEAMTAPGSEAFSKVAKSWMNLKSISPSYKTLPSVSETFPTLRSMIEVLNTDSSPRCLKKL [Q8NBP0]”, for which the “percentage of EdU-negative” value in the data set on hTERT-HMEC (protein concentration 0.012 µM) was 5.436 ± 0.048%; with hTERT-HMEC (protein concentration 0.12 µM), 11 ± 2.8%; in the data set on MCF7 (protein concentration 0.012 µM), 25.9 ± 1.1%; in the data set with MCF7 (protein concentration 0.12 µM), 27.7 ± 0.85%.
